Assay [1] has as its target Glu-plasminogen (Homo sapiens (Human)) (UniProt P00747). Nature of the assay: competition of Glu-Plg (2 µM) binding to PMA-stimulated U937 cells by µ-plasmin-KD1L17R-KT complex, read by plasmin generation; Kd from IC50 by Cheng-Prusoff.
For assay [2], the target named is T1, tissue plasminogen activator (Alteplase) (UniProt P00750 36-562).
T1 construct: also called tPA
Description: SPR, lower end tied to tPA by paragraph 202.

Assay [3] addresses T2, Glu-plasminogen (Homo sapiens (Human), UniProt P00747 20-810, Native glycoprotein; the glycans are not carried by the letters.).
T2 construct: also called Glu-Plg
Nature of the assay: SPR, upper end tied to Glu-Plg by paragraph 202. For orientation: SPR reads the build-up and loss of mass on a sensor chip optically.

In assay [4] the target is T1, tissue plasminogen activator (Alteplase). Nature of the assay: SPR (Biacore T100, 25 °C), tPA on CM5 chip, 1:1 binding model.
Assay [5] has as its target T2, Glu-plasminogen. Nature of the assay: SPR (Biacore T100, 25 °C), Glu-Plg on CM5 chip, 1:1 binding model.
Assay [6] deals with T3, human plasmin (human, UniProt P00747 97-810, limits assumed). Nature of the assay: plasmin amidolytic activity inhibition, S-2251 substrate, 3 nM plasmin, tight-binding equation.
In assay [7] the target is T3, human plasmin. Nature of the assay: cell-based or functional assay.
In assay [8] the target is T3, human plasmin. Nature of the assay: plasmin amidolytic activity inhibition, S-2251 substrate.
For assay [9], the target named is T4, active site-blocked human plasmin (human, UniProt P00747 97-810, limits assumed, active site blocked with a chloromethylketone inhibitor (e.g., D-Val-Phe-Lys chloromethylketone dihydrochloride)).
T4 construct: also called immobilized plasmin
Nature of the assay: SPR (BiaCore), active site-blocked plasmin on CM5 chip, polypeptide as analyte at 1-10 µM.

Assay [10] addresses T5, factor VIIa-tissue factor (soluble human tissue factor 100 nM and factor VIIa 50 nM) (human), P08709.
T5 chain 1: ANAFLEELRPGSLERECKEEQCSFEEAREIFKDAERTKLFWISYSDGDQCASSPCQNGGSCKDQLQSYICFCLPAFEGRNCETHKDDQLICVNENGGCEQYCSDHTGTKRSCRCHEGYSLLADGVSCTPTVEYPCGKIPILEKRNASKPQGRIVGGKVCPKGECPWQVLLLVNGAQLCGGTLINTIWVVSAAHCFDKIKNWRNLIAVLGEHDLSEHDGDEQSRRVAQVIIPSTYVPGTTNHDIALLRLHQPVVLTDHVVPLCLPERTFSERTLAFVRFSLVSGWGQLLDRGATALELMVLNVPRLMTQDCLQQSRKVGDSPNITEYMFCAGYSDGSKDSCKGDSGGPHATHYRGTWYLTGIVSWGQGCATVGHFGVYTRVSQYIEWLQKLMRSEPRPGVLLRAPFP
T5 chain 2: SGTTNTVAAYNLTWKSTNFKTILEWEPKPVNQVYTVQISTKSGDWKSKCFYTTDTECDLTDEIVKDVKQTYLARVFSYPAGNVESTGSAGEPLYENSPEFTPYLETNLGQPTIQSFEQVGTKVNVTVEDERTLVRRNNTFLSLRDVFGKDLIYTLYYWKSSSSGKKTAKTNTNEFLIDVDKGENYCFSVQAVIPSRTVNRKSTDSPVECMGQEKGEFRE
Description: factor VIIa-tissue factor amidolytic activity inhibition, S-2288 substrate. Conditions: remark: other sources report otherwise.

Assay [11] has as its target T4, active site-blocked human plasmin. Nature of the assay: SPR (BiaCore), active site-blocked plasmin on CM5 chip, polypeptide as analyte at 1-12 µM.

This is an account of results in patent EP2970434B1 (The Regents of the University of California, dated 2018).

The Kd is a measure of binding affinity in units of concentration. The low end stands for tighter binding, the high end for weaker binding. As usually defined, the koff is a measure of how fast the partners let go of each other. The low end stands for slow dissociation, the high end for fast dissociation. What is called kon is a measure of how fast the partners come together. A lower kon goes with slower complex formation. What is called Ki is the equilibrium dissociation constant of an inhibitor or competing ligand from its target. Low readings indicate tighter binding, high ones weaker binding.

T1 sequence (P00750 36-562 limits assumed): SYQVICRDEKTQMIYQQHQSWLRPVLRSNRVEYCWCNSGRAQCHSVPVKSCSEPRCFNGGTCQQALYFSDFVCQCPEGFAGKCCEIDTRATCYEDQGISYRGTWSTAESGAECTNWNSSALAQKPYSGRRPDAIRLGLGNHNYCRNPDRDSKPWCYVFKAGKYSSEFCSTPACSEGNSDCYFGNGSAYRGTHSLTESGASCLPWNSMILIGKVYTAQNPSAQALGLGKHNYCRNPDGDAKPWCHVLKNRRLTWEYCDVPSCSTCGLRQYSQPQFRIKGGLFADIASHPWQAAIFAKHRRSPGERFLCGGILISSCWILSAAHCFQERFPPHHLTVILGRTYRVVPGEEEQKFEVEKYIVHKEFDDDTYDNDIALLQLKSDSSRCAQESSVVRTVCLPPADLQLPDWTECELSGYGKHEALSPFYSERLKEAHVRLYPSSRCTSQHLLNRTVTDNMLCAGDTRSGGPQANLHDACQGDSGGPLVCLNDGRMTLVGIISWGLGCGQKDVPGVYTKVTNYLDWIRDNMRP
T2 sequence (P00747 20-810 limits assumed): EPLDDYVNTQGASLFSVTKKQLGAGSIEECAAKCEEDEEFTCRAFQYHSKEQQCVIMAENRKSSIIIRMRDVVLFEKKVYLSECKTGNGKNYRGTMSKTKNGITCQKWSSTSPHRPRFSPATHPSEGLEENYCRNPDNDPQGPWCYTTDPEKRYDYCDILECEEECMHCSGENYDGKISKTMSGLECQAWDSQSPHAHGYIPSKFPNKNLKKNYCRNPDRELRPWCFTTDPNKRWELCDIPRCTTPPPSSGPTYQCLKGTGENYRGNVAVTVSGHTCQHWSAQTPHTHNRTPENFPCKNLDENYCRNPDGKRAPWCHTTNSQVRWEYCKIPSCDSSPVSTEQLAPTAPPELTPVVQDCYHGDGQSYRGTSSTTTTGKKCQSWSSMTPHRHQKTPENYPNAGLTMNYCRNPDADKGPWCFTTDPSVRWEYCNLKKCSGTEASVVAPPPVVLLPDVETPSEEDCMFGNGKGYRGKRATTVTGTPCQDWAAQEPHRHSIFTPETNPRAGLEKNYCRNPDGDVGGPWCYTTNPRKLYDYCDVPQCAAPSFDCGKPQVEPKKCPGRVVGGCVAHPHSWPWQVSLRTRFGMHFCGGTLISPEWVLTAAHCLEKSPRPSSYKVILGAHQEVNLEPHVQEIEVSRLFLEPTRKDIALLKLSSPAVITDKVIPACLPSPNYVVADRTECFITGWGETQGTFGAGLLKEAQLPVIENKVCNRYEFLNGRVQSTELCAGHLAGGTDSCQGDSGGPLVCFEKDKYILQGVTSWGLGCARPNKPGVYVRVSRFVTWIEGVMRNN
T3 sequence (P00747 97-810 limits assumed): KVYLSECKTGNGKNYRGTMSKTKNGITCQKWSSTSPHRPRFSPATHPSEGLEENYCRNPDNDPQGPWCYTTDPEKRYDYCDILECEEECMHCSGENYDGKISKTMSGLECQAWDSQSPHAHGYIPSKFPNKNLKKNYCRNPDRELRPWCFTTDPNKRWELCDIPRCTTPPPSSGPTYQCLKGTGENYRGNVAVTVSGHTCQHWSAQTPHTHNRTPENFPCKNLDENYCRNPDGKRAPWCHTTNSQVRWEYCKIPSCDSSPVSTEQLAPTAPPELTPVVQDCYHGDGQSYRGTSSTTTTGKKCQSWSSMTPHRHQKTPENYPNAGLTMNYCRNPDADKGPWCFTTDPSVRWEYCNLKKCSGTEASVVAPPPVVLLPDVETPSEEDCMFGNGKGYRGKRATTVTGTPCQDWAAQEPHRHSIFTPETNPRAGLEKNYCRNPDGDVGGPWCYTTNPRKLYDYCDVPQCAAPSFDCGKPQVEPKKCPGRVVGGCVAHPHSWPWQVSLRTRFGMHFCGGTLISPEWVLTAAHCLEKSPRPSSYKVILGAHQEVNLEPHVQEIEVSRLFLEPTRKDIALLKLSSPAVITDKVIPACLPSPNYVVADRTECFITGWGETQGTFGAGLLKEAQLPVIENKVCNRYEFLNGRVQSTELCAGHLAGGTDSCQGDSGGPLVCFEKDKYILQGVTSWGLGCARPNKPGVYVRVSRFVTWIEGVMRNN
T4 sequence (P00747 97-810 limits assumed): as above
Chain of Glu-plasminogen (Homo sapiens (Human)) (P00747 20-810 limits assumed): as the sequence (P00747 20-810 limits assumed) above

Consider “µ-plasmin-KD1L17R-KT complex (from UniProt P00747 561-580; P00747 581-810)”, for which, in assay [1], the Kd was determined as 300 nM. This lies in the sub-micromolar range.

B1: KD1L17R-KT (designed binder)
chain: GNNAEICLLPLDYGPCRARLLRYYYDRYTQSCRQFLYGGCEGNANNFYTWEACDDACWRIEKVPK
notes: Both have C-terminal lysine; also called IIa cleaved KD1L17R-VT
On to B1, for which the Kd in assay [2] is 200 to 300 nM; in the assay with Glu-plasminogen [3], 200 to 300 nM; in [4] it was 210 nM; with Glu-plasminogen [5], 280 nM. In addition, the koff in [4] is 0.00019 s⁻¹; with Glu-plasminogen [5], 0.00031 s⁻¹. Besides, the figures for the kon (in assay [4]; in the assay with Glu-plasminogen [5]) were 910 M⁻¹ s⁻¹ and 1100 M⁻¹ s⁻¹, respectively. The molecule also had a Ki with human plasmin [6] of 1 nM.

B2: plasmin-inhibiting polypeptide comprising the amino acid sequence set forth in SEQ ID NO:5 (designed binder)
chain: NAEICLLPLDYGPCRARLLRYYYDRYTQSCRQFLYGGCEGNANNFYTWEACDDACWRIEK
notes: Expressed in E. coli; also called 60A
As to B2, in the assay with human plasmin [7], the “IC50 (nM), inhibition of plasmin activity (S2251 hydrolysis)” value (“IC50 (nM), inhibition” below) turned out to be 3.4 nM. For the same molecule, the Ki in the assay with human plasmin [8] turned out to be 2.36 nM. This molecule also yielded an equilibrium dissociation constant (Kd) in assay [9] of 130 nM.

B3: plasmin-inhibiting polypeptide comprising the amino acid sequence set forth in SEQ ID NO:3 (designed binder)
chain: NAEICLLPLDTGPCRARLLRYYYDRYTQSCRQFLYGGCEGNANNFYTWEACDDACWRIEK
notes: Expressed in E. coli; also called DM; 60B
Consider B3, for which the “IC50 (nM), inhibition” value in the assay with human plasmin [7] is 1.8 nM. Besides, the Ki stood at 0.49 nM with human plasmin [8] and 5870 nM in [10]. The Kd in [9] was determined as 313 nM.

B4: plasmin-inhibiting polypeptide comprising the amino acid sequence set forth in SEQ ID NO:4 (designed binder)
chain: NAEICLLPLDTGPCRARLLRYYYDRYTQSCRQFLYGGCEGNANNFYTWEACDDACWRIEKVPK
B4: the “IC50 (nM), inhibition” value in the assay with human plasmin [7] came out at 0.8 nM.

B5: plasmin-inhibiting polypeptide comprising the amino acid sequence set forth in SEQ ID NO:6 (designed binder)
chain: NAEICLLPLDYGPCRARLLRYYYDRYTQSCRQFLYGGCEGNANNFYTWEACDDACWRIEKVPK
notes: Purified recombinant polypeptide; also called 63-residue
Consider B5, for which the “IC50 (nM), inhibition” value with human plasmin [7] is 1.8 nM. In assay [11], this molecule came in with a Kd of 290 nM.
